What is called Tm is the temperature at the midpoint of the melting transition.

We go through 2 variants from FireProtDB (doi:10.1021/bi982158q).

The chains are these.
B1: Cytochrome b5, P00171 (parent)
chain: MAEESSKAVKYYTLEEIQKHNNSKSTWLILHYKVYDLTKFLEEHPGGEEVLREQAGGDATENFEDVGHSTDARELSKTFIIGELHPDDRSKITKPSESIITTIDSNPSWWTNWLIPAISALFVALIYHLYTSEN

In the data set the parent is B1. The conditions noted are these: Bos taurus, pH 7, K2HPO4 5 mM, transition: 2, reversible: Yes, structure 1CYO, whole UniProt chain shown; for denaturant m value / denaturant midpoint (higher = more stable) / unfolding free energy: 25 °C, Urea; for Tm / change of melting temperature, mutant - wild type (higher = more stable): Thermal.

Regarding MAEESSKAVKYYTLEEIQKHNNCKSTWLILHYKVYDLTKFLEEHPGGEEVLCEQAGGDATENFEDVGHSTDARELSKTFIIGELHPDDRSKITKPSESIITTIDSNPSWWTNWLIPAISALFVALIYHLYTSEN [S23C R52C], for the setting “Absorbance”, the denaturant m value is 0.81 kcal/mol/M, the “denaturant midpoint (higher = more stable)” value (“denaturant midpoint” below) was 6.4 M, the unfolding free energy turned out to be 5.2 kcal/mol and the melting temperature (Tm) was determined as 76 °C. In addition, the “change of melting temperature, mutant - wild type (higher = more stable)” value (“change of melting temperature, mutant” for short) (Absorbance) was 0.8 °C. In addition, for the setting “Fluorescence”, the denaturant m value came to 0.93 kcal/mol/M, the “denaturant midpoint” value was 3.7 M, the unfolding free energy is 3.4 kcal/mol and the Tm is 60.8 °C. Also, the “change of melting temperature, mutant” value (Fluorescence) turned out to be 10.7 °C.

Consider MAEESSKAVKYYTLEEIQKHNNCKSTWLILHYKVYDLTKFLEEHPGGEEVLREQAGGDATENFEDVGHSTDARELSKTFIIGELHPDDRSKITKPSESIITTIDSNPSWWTNWLIPAISALFVALIYHLYTSEN [S23C], for which, where the note is “Absorbance”, the denaturant m value was 0.97 kcal/mol/M, the “denaturant midpoint” value turned out to be 6.5 M, the unfolding free energy was determined as 6.9 kcal/mol and the Tm was 75.5 °C. For the same variant, the “change of melting temperature, mutant” value (Absorbance) was found to be 0.3 °C. For the setting “Fluorescence”, the denaturant m value worked out at 0.56 kcal/mol/M, the “denaturant midpoint” value is 2.5 M, the unfolding free energy came to 1.4 kcal/mol and the Tm came out at 52.7 °C. The “change of melting temperature, mutant” value (Fluorescence) turned out to be 2.6 °C.
